System: MS2 coat protein
Assay: apparent KD of MS2 coat protein; designed switch direction (-1 OFF switch, 1 ON switch): -1; higher = weaker reporter binding
Summary of the method: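 Designed RNA switches sharing common flanks were transcribed on Illumina chips by stalled E. coli RNA polymerase. They were titrated with SNAP-549-labelled MS2 coat protein, from 0.7 or 1.5 nM doubling to 3 µM, in Tris-HCl pH 7.5 buffer with KCl, MgCl2, BSA, DTT, tRNA and Tween-20. Titrations ran without input, with 200 uM small-molecule ligand, or with an oligonucleotide input. The apparent KD of each design is the median over its clusters, after curve-fitting of normalised cluster fluorescence.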

[1] = Eterna round: R95, input ligand: FMN 200 uM
[2] = Eterna round: R95, input ligand: microRNA oligo, concentration not stated
[3] = Eterna round: R95, input ligand: none
[4] = input ligand: microRNA oligo, concentration not stated

| Sequence | apparent KD of MS2 coat protein [1] [µM] | apparent KD of MS2 coat protein [2] [µM] | apparent KD of MS2 coat protein [3] [µM] | apparent KD of MS2 coat protein (input ligand: FMN 200 uM) [µM] | apparent KD of MS2 coat protein [4] [µM] | apparent KD of MS2 coat protein (input ligand: none) [µM] |
| --- | --- | --- | --- | --- | --- | --- |
| AGAUGGCGAGGAUAUACAUGAGGAUCACCCAUGUGAAGAAGAAGAGUGAGGAAGAAAAGUAGAAGGCGCUGUCA [Mat - Exclusion 3 - Mod of Salish D30] (puzzle: Exclusion 3) | 0.137 | 0.0458 | 0.0647 |  |  |  |
| AAGACUCGCAAUAAGAACAAGCACUCCGAACUAUAAGUAACAUGAGGAUCACCCAUGUCAAGGGUGCCAAAGUCAAA [JR_Sensorv2_tov2_Sub302] (Eterna round: R96, puzzle: Sensor v2, turn-off variant 2) |  |  |  | 0.0154 | 0.016 | 0.0186 |
| CAUCCACAUGAGGAUCACCCAUGUCAGGAUAUCUAUCAUAGCAUCGAAAGAUGCGGGUAGAGAAGGGACAAACC [ChP Ext 10-04-2015 #9] (puzzle: Exclusion 1) |  | 0.0124 |  |  |  |  |
| GCUUAACAUGAGGAUCACCCAUGUUAGGAUAUGCGAACUCGUAAGAUGCAGGGAGAUUGCAGAAGGAACGUGGC [EX1 C.15] (Eterna round: R97, puzzle: Exclusion 1) |  |  |  | 0.022 |  | 0.0182 |
| AAUAAACAUGAGGAUCACCCAUGUGAGGAUAUCCAAAUAAAUAAUAAAAUAAAUAAAAGGAGAAGGCACAAUAA [JMF most obvious solution 2] (puzzle: Exclusion 1) | 0.0717 | 0.198 | 0.19 |  |  |  |
| AUUUAGCAAGCGUGAUCCUACAUGAGGAUCACCCAUGUAGUUCGUCUUAUUUGAAGACAACACAAAAGUGUUGUCUU [Omei Mir OFFv1 B8] (Eterna round: R97, puzzle: Sensor, turn-off variant 1) |  |  |  | 0.355 |  | 0.212 |
| GCAGGUUAAGUCAGGAUAUACCUAUGGAUACAUAGGUAGAAGGGACAUGAGGAUCACCCAUGUGCCUCGCCUGC [Fiskers BMX 4 - 58] (puzzle: Brourd's mod of Exclusion 4) |  | 0.0154 |  |  |  |  |
| GAUUAUGCGAGCUUUAGGGACAUGAGGAUCACCCAUGUUCGUCUUAUUGAUCUAGGUACGCUAACAUACCUAAAUCU [Mod of one of jandersonlee's solutions 3] (puzzle: Sensor v3, turn-off variant 1) | 0.023 | 0.0363 | 0.023 |  |  |  |
| AUUUUGUGAGGAUAUUAGUUGUAGAAAGUUGUUAGUAUUGCUGAGAAGGCACAUGAGGAUCACCCAUGUACAAC [JR_Ex4_Sub038] (Eterna round: R97, puzzle: Exclusion 4) |  |  |  | 0.0206 |  | 0.0191 |
| CCAAUGUAAGGAUAUGACAAUGGUAUCUUCGGAUACCAUUGUCAGAAGGUACAUGAGGAUCACCCAUGUAUAAA [Ex4-3: 10] (puzzle: Exclusion 4) |  | 0.0173 |  |  |  |  |
| UGAUCAGACCGAGGAUAUACAGGGAGCACGCACGUGAGUGCGUGCACUACAUGAGGAUCACCCAUGUAGAAGGCGGUCUGAUCU [JL ENG2 1.00] (Eterna round: R96, puzzle: Exclusion NG 2) |  |  |  | 0.268 | 0.0161 | 0.0193 |
| AUAACAAGCUUUUUGUUCGUAGAACAUGAUGCUCGAGUCACAUGAGGAUCACCCAUGUCAACCAGAUAGAUAGUUGA [JR_SV3TOV2_Sub061] (puzzle: Sensor v3, turn-off variant 2) | 0.0412 | 0.162 | 0.0544 |  |  |  |
| CGAUAUUAUGUCAGGAUAUACAUUGCGAAAGCAAUGUAGAAGGGACAUGAGGAUCACCCAUGUCCUAACUAUCG [Omei A 2] (puzzle: Brourd's mod of Exclusion 4) |  | 0.0129 |  |  |  |  |
| CAGUACUGAGGAUAUACAUGAGGAUCACCCAUGUGUUCCAGCUAGGAAACUAGGAAAAGUAGAAGGCAGUACUG [salish99_ex3_r3_069] (puzzle: Exclusion 3) |  | 0.0231 |  |  |  |  |
| CAGUACUGCAGGCUUAGGGACAUGAGGAUCACCCAUGUUCGUCUUAUUGAUCUAGGUACGCUGACGUACCUAGAUCU [JL-sv1-2.15 Brourd mod] (puzzle: Sensor v3, turn-off variant 1) | 0.0169 | 0.019 | 0.0181 |  |  |  |
| UGGAUAAUUGGAGGAUAUGCGACAUAAACCAUUGUAGAAGGCCAACAUGAGGAUCACCCAUGUGUCCCAGAGACCACAGAUCCA [Eternabot solution 9] (Eterna round: R96, puzzle: Exclusion NG 1) |  |  |  | 0.0369 | 0.0222 | 0.0282 |
| AGCGAGGCAGGAUAUACAUGAGGAUCACCCAUGUGCUUGCAUGGCGUGGGACGUCGAGGUAGAAGGGCCAUGCC [EX3 #70] (Eterna round: R97, puzzle: Exclusion 3) |  |  |  | 0.0873 |  | 0.0521 |

| Sequence | apparent KD of MS2 coat protein [1] [µM] | apparent KD of MS2 coat protein [2] [µM] | apparent KD of MS2 coat protein [3] [µM] | apparent KD of MS2 coat protein (input ligand: FMN 200 uM) [µM] | apparent KD of MS2 coat protein [4] [µM] | apparent KD of MS2 coat protein (input ligand: none) [µM] |
| --- | --- | --- | --- | --- | --- | --- |
| GUCCUACAUGAGGAUCACCCAUGUGAGGAUAUGCGGUUAGCUGCUAGGUAGUUAGUAUGCAGAAGGCGCGUGAA [EX1 #80] (Eterna round: R97, puzzle: Exclusion 1) |  |  |  | 0.0159 |  | 0.014 |
| ACAAGCUCUUUGCAACUUAGUUUUGUUGCUUCGUAGGUAACAUGAGGAUCACCCAUGUAAGAGUGAUGUCGUCUUAU [JR_SV3TOV2_Sub085] (puzzle: Sensor v3, turn-off variant 2) | 0.0658 | 0.0527 | 0.0769 |  |  |  |
| UUUACCAGAGGAUAUGCGAAUAAAUAAAACUUUUUUUUUUAACAUGAGGAUCACCCAUGUAGAAGGCUGCAUUU [Ex2 #29] (Eterna round: R97, puzzle: Exclusion 2) |  |  |  | 0.0255 |  | 0.0282 |
| UUAUAUAGUGUGAGGAUAUGCUGGUCCUUGGAUCAGCAGAAGGCACAUGAGGAUCACCCAUGUAGUUAAUUAUA [Mat - Exclusion 4 - JL Mod - D15] (puzzle: Brourd's mod of Exclusion 4) |  | 0.0301 |  |  |  |  |
| GUCAGCUCGUGAGGAUAUACAUGAUAGAUCGAUUAAUUAAUUAAUUUAACAUGAGGAUCACCCAUGUAGAAGGUACGAGCUGAC [ENG2/1-C1] (Eterna round: R96, puzzle: Exclusion NG 2) |  |  |  |  | 0.0433 |  |
| GAGUUACAUGAGGAUCACCCAUGUGAGGAUAUGAGUCAGUCACGGUGACGUGGCUGACUCAGAAGGCACAAAGG [Mat - Exclusion 1 - JL Mod - D37] (Eterna round: R97, puzzle: Exclusion 1) |  |  |  | 0.186 |  | 0.0838 |
| UUUUGGCAUGUAGGAUAUGGGUCCGAUUAGGAUUUAGAAGGACAUGAGGAUCACCCAUGUGCCCUUACUUGGUCUUUUUUUUUU [EXclNG1-LROPPY18] (Eterna round: R96, puzzle: Exclusion NG 1) |  |  |  | 0.0523 | 0.0192 | 0.0412 |
| CCCAGUUAUGAAGGAUAUUGUACAUGAGGAUCACCCAUGUAAUAAAUGAGGAUUUCGGGUGUCUACAAGAAGGUCAGGAUAGGC [Ostracism 14 - Jieux - Exclusion NG 2] (Eterna round: R96, puzzle: Exclusion NG 2) |  |  |  | 0.0828 | 0.0436 | 0.0606 |
| ACAUGUAUUGCAGGAUAUGGGACACAUGAGGAUCACCCAUGUGACCACAUGUAAUGCCACGGGUCUCAGAAGGGUAUGUACAUG [Ex NG2 #43] (Eterna round: R96, puzzle: Exclusion NG 2) |  |  |  | 0.117 | 0.0229 | 0.0266 |
| ACAAGCUUAAUCAGUAAGAACAUGAGGAUCACCCAUGUAAAUGAAAGGACUAUUGGGUUAUUUAAAGCUCGUCUUAU [JR_STOV1_Sub014] (Eterna round: R97, puzzle: Sensor, turn-off variant 1) |  |  |  | 0.0521 |  | 0.0528 |
| GUUGCUACUGAGGAUAUUAUUUUACCCGACUGAUAAGAAGGCAGUACAUGAGGAUCACCCAUGUGGGUAGCCAG [Polaris15] (Eterna round: R97, puzzle: Exclusion 6) |  |  |  | 0.0441 |  | 0.0218 |
| GUGGUCUAUGUAGGAUAUACGUUUGUGCGAUGCGUAGAAGGACAUGAGGAUCACCCAUGUGUGCGAGGAUCACCCGUGUGUUGU [double] (Eterna round: R96, puzzle: Exclusion NG 1) |  |  |  | 0.158 | 0.0839 | 0.1 |
| CUGGUCCGAGGAUAUAUUAAGUGAUACAUGAGGAUCACCCAUGUAAUUUAAUGGAUAUAAAUAGAAGGCGGACUAG [Mat - Exclusion 5 - JL mod - D48] (puzzle: Exclusion 5) | 0.0429 | 0.0264 | 0.0328 |  |  |  |
| UGGUAACAUGAGGAUCACCCAUGUCAGGAUAUCAGUAAGAAUAGAGGAGAGUAGAAGAUGAGAAGGGACUAUAU [Excluse me! 8 - Jieux - Exclusion 1] (puzzle: Exclusion 1) | 0.0205 | 0.0334 | 0.0308 |  |  |  |
| GGGCCCGGAGGAUAUACAUGAGGAUCACCCAUGUAGGGCCCGGGUAUUCCCGGGCCCUGUAGAAGGUUGGGCCC [-44, -41.2 kcal, A 19%, 0,5c] (Eterna round: R97, puzzle: Exclusion 3) |  |  |  | 0.0178 |  | 0.0158 |
| GGCUUACAUGAGGAUCACCCAUGUCAGGAUAUAGAACGAUGGCGGAACGCCAUCGCCGCUAGAAGGGACCGGUG [Eternabot (Original) Solution 25] (Eterna round: R97, puzzle: Exclusion 1) |  |  |  | 0.142 |  | 0.078 |
| CCCUCGCGAGGAUAUGCAUCCUCCCUCAUUUCUUUCACUACACAUGAGGAUCACCCAUGUAGAAGGCGCUCUCC [Nina] (puzzle: Exclusion 2) |  | 0.0412 |  |  |  |  |

From the supplement of paper PMC9170038
